Measurements published in US20250002593A1 (INMAGENE PTE, published 2025).
Read-outs that look alike come from different tables or passages of the source. Values belong to the binder of their own block, whether it stands above or below them.

Tests used:
[1] = target: T1, membrane hIL-36R (human, UniProt Q9HB29 20-575); test: cell-based or functional assay
T1 sequence: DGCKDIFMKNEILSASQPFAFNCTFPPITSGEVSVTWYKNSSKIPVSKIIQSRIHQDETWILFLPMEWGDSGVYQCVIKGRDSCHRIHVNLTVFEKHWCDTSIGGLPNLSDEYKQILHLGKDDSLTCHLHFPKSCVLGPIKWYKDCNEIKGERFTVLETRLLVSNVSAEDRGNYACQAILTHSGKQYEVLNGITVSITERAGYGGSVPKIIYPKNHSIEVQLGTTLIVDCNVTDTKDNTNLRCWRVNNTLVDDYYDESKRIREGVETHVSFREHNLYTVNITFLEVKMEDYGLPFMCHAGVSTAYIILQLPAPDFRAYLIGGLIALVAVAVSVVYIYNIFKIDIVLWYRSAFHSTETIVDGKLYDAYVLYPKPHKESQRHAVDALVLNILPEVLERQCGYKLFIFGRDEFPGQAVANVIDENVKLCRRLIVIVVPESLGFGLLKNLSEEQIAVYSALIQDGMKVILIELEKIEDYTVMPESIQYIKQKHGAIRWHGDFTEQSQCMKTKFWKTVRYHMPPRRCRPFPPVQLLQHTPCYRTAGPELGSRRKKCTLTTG

[2] = target: T2, Recombinant hIL-36R protein (Acrobio, Cat #IL2-H52H6) (human, UniProt Q9HB29 20-335); test: BLI as in Example 2, antibody on Protein A sensor, hIL-36R analyte
T2 construct: Bought soluble protein; also called recombinant human IL-36R protein
T2 sequence: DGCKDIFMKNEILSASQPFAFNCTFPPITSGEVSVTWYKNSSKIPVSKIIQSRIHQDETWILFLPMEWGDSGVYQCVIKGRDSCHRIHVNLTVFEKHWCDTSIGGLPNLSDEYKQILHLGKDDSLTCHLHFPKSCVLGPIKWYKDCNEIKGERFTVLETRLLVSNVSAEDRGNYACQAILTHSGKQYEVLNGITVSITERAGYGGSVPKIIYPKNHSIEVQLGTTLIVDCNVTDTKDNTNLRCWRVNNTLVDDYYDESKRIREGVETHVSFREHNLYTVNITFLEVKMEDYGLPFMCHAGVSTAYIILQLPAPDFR

[3] = target: T2, Recombinant hIL-36R protein (Acrobio, …); test: BLI (Gator), antibody on Protein A sensor, hIL-36R analyte
[4] = target: T2, Recombinant hIL-36R protein (Acrobio, …); test: BLI (Gator), antibody on Protein A sensor, hIL-36R analyte; stands under the head kon(1/s), read as koff from KD = koff/kon
[5] = target: T2, Recombinant hIL-36R protein (Acrobio, …); test: BLI (Gator), antibody on Protein A sensor, hIL-36R analyte; stands under the head koff(1/Ms), read as kon from KD = koff/kon
[6] = target: T1, membrane hIL-36R; test: cell-based or functional assay; remark: listed apart in the source
[7] = target: T1, membrane hIL-36R; test: cell-based or functional assay; remark: listed apart in the source
[8] = target: T1, membrane hIL-36R; test: cell-based or functional assay; remark: listed apart in the source
[9] = target: T1, membrane hIL-36R; test: cell-based or functional assay; remark: listed apart in the source
[10] = target: T1, membrane hIL-36R; test: cell-based or functional assay; remark: listed apart in the source
[11] = target: T1, membrane hIL-36R; test: cell-based or functional assay; remark: listed apart in the source
[12] = target: T2, Recombinant hIL-36R protein (Acrobio, …); test: SPR (Biacore T200, 25 C), antibody captured by Fc, hIL-36R analyte
[13] = target: T3, Recombinant hIL1R1 protein (human, UniProt P14778 18-332, limits assumed); test: ELISA on coated recombinant hIL1R1 protein, detection with HRP anti-hIgG
T3 sequence (looked up): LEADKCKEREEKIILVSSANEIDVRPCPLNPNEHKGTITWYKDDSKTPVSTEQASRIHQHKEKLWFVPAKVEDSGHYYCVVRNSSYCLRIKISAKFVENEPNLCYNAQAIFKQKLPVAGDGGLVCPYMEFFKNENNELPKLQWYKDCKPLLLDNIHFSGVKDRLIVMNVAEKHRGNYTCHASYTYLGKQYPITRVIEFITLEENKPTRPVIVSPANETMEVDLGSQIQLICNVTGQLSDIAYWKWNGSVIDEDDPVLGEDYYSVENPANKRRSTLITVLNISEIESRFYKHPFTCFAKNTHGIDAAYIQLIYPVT

[14] = target: T4, recombinant hIL-36R-his (human, UniProt Q9HB29 20-337); test: ELISA on coated recombinant hIL36R protein (1 µg/ml), detection with HRP anti-hIgG; unit taken from the x axis Ab(µg/mL)
T4 construct: Residues 1-337 (extracellular domain) are stated for the IL-36R-his used as immunogen; The range includes the signal peptide; no cleavage site is stated; also called recombinant hIL36R protein; recombinant human IL-36R-his protein; not shown: His tag
T4 sequence: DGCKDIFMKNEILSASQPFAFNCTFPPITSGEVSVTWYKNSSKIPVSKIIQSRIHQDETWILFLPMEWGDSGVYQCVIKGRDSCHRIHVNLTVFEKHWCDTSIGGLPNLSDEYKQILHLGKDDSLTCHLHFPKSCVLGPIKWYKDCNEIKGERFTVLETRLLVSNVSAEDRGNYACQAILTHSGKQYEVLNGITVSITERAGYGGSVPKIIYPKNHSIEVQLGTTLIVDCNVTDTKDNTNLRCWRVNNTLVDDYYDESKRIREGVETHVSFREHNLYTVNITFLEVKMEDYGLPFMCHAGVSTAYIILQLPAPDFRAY

[15] = target: T1, membrane hIL-36R; test: flow cytometry on HEK293 cells transfected with pcDNA3.1-hIL36R, FITC anti-hIgG, MFI (median); unit taken from the x axis
[16] = target: T2, Recombinant hIL-36R protein (Acrobio, …); test: BLI (Gator)

B2: 1J3 (antibody, V domains shown)
VH: QVQLEQSGGDLVKPGGSLKLSCAASGFTFSSYGMSWVRQTPDKRLEWVATISSYGSYTSYPDTVKGRFTISRDNAKNTLYLQMSSLKSEDTAMYYCARPDYYVSTGFDYWGQGTTLTVSS
VL: DIVITQSTATLSVTPGDRVSLSCRASQSISDYLHWYQQKSHESPRLLIKYASQSISGIPSRFSGSGSGSDFTLSINSVEPEDVGVYYCQNGHSFPFTFGSGTKLEIK
notes: Mouse variable regions, recombinantly expressed
- Kd [3]: 0.597 nM
- koff [4]: 4.37e-05 s⁻¹
- kon [5]: 73200 M⁻¹ s⁻¹

B4: 1A21 (antibody, V domains shown)
VH: EVQLQQSGPELVKPGDSVKISCKASGYSFTGYFMNWVMQSHGKSLEWIGRINPYNGDTFYNQKFKGKATLTVDKSSSTAHMELRSLTSEDSAVYYCAGLGHWYFDVWGTGTTVTVSS
VL: DIVMTQSTLSLPVSLGDQASISCRSSQSIVHSNGNTYLEWYLQKPGQSPKLLIYKVSNRFSGVPDRFSGSGSGTDFTLKISRVEAEDLGVYYCFQGSHVPWTFGGGTKLEIK
notes: as for B2
- Kd [3]: 0.536 nM
- koff [4]: 4.01e-05 s⁻¹
- kon [5]: 74900 M⁻¹ s⁻¹

B6: 5F7-2a6 (antibody, human IgG4 S228P, kappa, V domains shown)
VH: EVQLVESGGGLVKPGGSLRLSCAASGFDFTDYYMNWVRQAPGKGLEWVALIRNKAAGYTIYYSAPVKGRFTISRDDSKSTLYLQMNSLKTEDTAVYYCVRDMTIYDGYYVDYALDYWGQGTLVTVSS
VL: DIVMTQSPSSVSASVGDRVTITCRASRNINIWLSWYQQKPGKAPKLFIYKASNLHTGVPSRFSGSGSGTDFTLTISSLQPEDFATYYCLQSQSYPLTFGQGTKLEIKR
- Kd [16]: < 0.1 nM
- kon [16]: 39800 M⁻¹ s⁻¹
- IC50, IL-36R reporter assay: inhibition of ligand induced luminescence in Jurkat-IL36R-IL1Racp-NFkB-luc cells [6]: 0.0228 µg/mL

B7: 5F7-2a1 (antibody, human IgG4 S228P, kappa, V domains shown)
VH: EVQLVESGGGLVKPGGSLRLSCAASGFDFTDYYMHWVRQAPGKGLEWVALIRNKAAGYTIYYSAPVKGRFTISRDDSKSTLYLQMNSLKTEDTAVYYCVRDMTIYDGYYVDYALDYWGQGTLVTVSS
VL: DIVMTQSPSSVSASVGDRVTITCRASRNINIWLSWYQQKPGKAPKLFIYKASNLHTGVPSRFSGSGSGTDFTLTISSLQPEDFATYYCLQSQSYPLTFGQGTKLEIKR
- Kd [16]: < 0.1 nM
- kon [16]: 32500 M⁻¹ s⁻¹
- IC50, IL-36R reporter assay: inhibition of ligand induced luminescence in Jurkat-IL36R-IL1Racp-NFkB-luc cells [6]: 0.0195 µg/mL

The next lines start with the values.

- IC50, IL-36R reporter assay: inhibition of ligand induced luminescence in Jurkat-IL36R-IL1Racp-NFkB-luc cells [1]: 0.086 µg/mL
- Kd [2]: 6.86 nM
- koff [2]: 0.000233 s⁻¹
- kon [2]: 34000 M⁻¹ s⁻¹
B1: 5F7-hu-2 (antibody, V domains shown)
VH: QVQLQESGGGLVKPGGSLRLSCAASGFAFTDYYMNWIRQAPGKGLEWVSLIRNKAAGYTIYYADSVKGRFTISRDNAKSSLYLQMNSLRAEDTAVYYCVRDMTIYDGYYVDYALDYWGQGTLVTVSS
VL: EIVMTQSPATLSVSPGERATLSCRASQNINIWLSWYQQKPGQAPRLFIYKASNLHTGVPARFSGSGSGTEFTLTISSLQSEDFAVYYCLQSQSYPLTFGQGTKLEIK
notes: Humanized 5F7; also called humanized 5F7

- IC50, IL-36R reporter assay: inhibition of ligand induced luminescence in Jurkat-IL36R-IL1Racp-NFkB-luc cells [6]: 0.0324 µg/mL
- IC50, inhibition of IL-36α induced IL-8 release in A431 cells (IL-8 ELISA, OD450) [panel IL-36α] [7]: 1.58 µg/mL
- IC50, inhibition of IL-36β induced IL-8 release in A431 cells (IL-8 ELISA, OD450) [panel IL-36β] [7]: 0.496 µg/mL
- IC50, inhibition of IL-36γ induced IL-8 release in A431 cells (IL-8 ELISA, OD450) [panel IL-36γ] [7]: 0.0474 µg/mL
- IC50, inhibition of IL-36α induced IL-8 release in primary human dermal fibroblast (HDF) cells (IL-8 ELISA, OD450) [8]: 0.106 µg/mL
- IC50, inhibition of IL-36α induced IL-6 release in primary human epithelial keratinocytes (HEK cells) [panel IL-6] [9]: 1.35 µg/mL
- IC50, inhibition of IL-36α induced IL-8 release in primary human epithelial keratinocytes (HEK cells) [panel IL-8] [9]: 1.15 µg/mL
- IC50, inhibition of IL-36α induced TNF-α release in primary human epithelial keratinocytes (HEK cells) [panel TNF-α] [9]: 0.266 µg/mL
- IC50, inhibition of IL-36β induced IL-6 release in primary human epithelial keratinocytes (HEK cells) [panel IL-6] [10]: 0.094 µg/mL
- IC50, inhibition of IL-36β induced IL-8 release in primary human epithelial keratinocytes (HEK cells) [panel IL-8] [10]: 0.35 µg/mL
- IC50, inhibition of IL-36β induced TNF-α release in primary human epithelial keratinocytes (HEK cells) [panel TNF-α] [10]: 0.0577 µg/mL
- IC50, inhibition of IL-36γ induced IL-6 release in primary human epithelial keratinocytes (HEK cells) [panel IL-6] [11]: 0.159 µg/mL
- IC50, inhibition of IL-36γ induced IL-8 release in primary human epithelial keratinocytes (HEK cells) [panel IL-8] [11]: 0.187 µg/mL
- IC50, inhibition of IL-36γ induced TNF-α release in primary human epithelial keratinocytes (HEK cells) [panel TNF-α] [11]: 0.0726 µg/mL
- Kd [12]: 13.2 nM
- koff [12]: 0.000444 s⁻¹
- kon [12]: 33500 M⁻¹ s⁻¹
- binding result [13]: no binding (tested: 1 µg/mL)
- EC50 [14]: 0.0228 µg/mL
- EC50 [15]: 0.119 µg/mL
B3: ANB019 (antibody, V domains shown)
VH: QVQLVQSGAEVKKPGASVKVSCKASGYTFTNYWMNWVRQAPRQGLEWMGMFHPTGDVTRLNQKFKDRVTMTRDTSTSTVYMELSSLRSEDTAVYYCARTTSMIIGGFAYWGQGTLVTVSS
VL: DIVMTQTPLSLSVTPGQPASISCRSSKSLLHRNAITYFYWYLHKPGQPPQLLIYQMSNLASGVPDRFSGSGSGTDFTLKISRVEAEDVGVYYCAQNLELPLTFGGGTKVEIK
notes: also called benchmark antibody

- Kd [3]: 10 nM
- koff [4]: 0.000795 s⁻¹
- kon [5]: 79400 M⁻¹ s⁻¹
B5: 9C12 (antibody, V domains shown)
VH: EVQLQQSGPELVKPGASVKMSCKASGYTFTDYHMNWVKRSPGKSLEWIGRINPDYGDARYDQKFKGKATLTVDKSLSTAYMQLNRLTYEDSAVYYCARDGYYVFDYWGQGSTLTVSS
VL: DIVMTQAAFSNPVSLGTSASISCRSSKSLLHSDGITYLSWYLQRPGQSPQLLIYRMSNLVSGVPDRFSGSGSGTDFTLRISRVEAEDVGVYYCAQTLEFPLTFGAGTKLELK
notes: as for B2

- IC50, IL-36R reporter assay: inhibition of ligand induced luminescence in Jurkat-IL36R-IL1Racp-NFkB-luc cells [1]: 0.0781 µg/mL
- Kd [2]: 6.28 nM
- koff [2]: 0.000294 s⁻¹
- kon [2]: 46700 M⁻¹ s⁻¹
B8: 5F7-hu-5 (antibody, V domains shown)
VH: EVQLVESGGGLVKPGGSLRLSCAASGFAFTDYYMNWVRQAPGKGLEWVALIRNKAAGYTIYYSAPVKGRFTISRDDSKSTLYLQMNSLKTEDTAVYYCVRDMTIYDGYYVDYALDYWGQGTLVTVSS
VL: DIVMTQSPSSVSASVGDRVTITCRASQNINIWLSWYQQKPGKAPKLFIYKASNLHTGVPSRFSGSGSGTDFTLTISSLQPEDFATYYCLQSQSYPLTFGQGTKLEIK
notes: as for B1
